For test [1], the target named is T1, T. aurantiacus GH61A polypeptide (Thermoascus aurantiacus, UniProt G3XAP7, N13Y). The experiment in a line: Microcrystalline cellulose conversion assay II (Examples 10, 11), T. reesei CEL7A cellobiohydrolase I + A. oryzae CEL3A beta-glucosidase. The class given is biochemical. The following applies: 72 hours, 50° C. The protocol:
A 5% microcrystalline cellulose slurry was prepared by addition of 2.5 g of AVICEL® PH101 to a graduated 50 ml screw-cap conical tube followed by approximately 40 ml of deionized water. Each conical tube was then mixed thoroughly by shaking/vortexing, and adjusted to 50 ml total with deionized water and mixed again. For samples containing dioxy compounds, a similar slurry was prepared by the addition of 100 mg of solid dioxy compound and 2.5 g of AVICEL® PH101 to a graduated 50 ml screw-cap conical tube followed by approximately 40 ml of deionized water. Each conical tube was then mixed thoroughly by shaking/vortexing, and adjusted to 50 ml total with deionized water and mixed again.
The dioxy compounds assayed include caffeic acid, dichlorophenolindophenol (DCPIP), ethyl gallate, gallic acid, 3,4-dihydroxybenzoic acid, pyrocatechol, pyrogallol, sinapinic acid (3,5 dimethoxy-4-hydroxy cinnamic acid), and tannic acid.
In all cases, the contents of the tube (5% microcrystalline cellulose slurry with or without 0.2% dioxy compound) were then quickly transferred to a 100 ml beaker and stirred rapidly with a magnetic stirrer. Five hundred μl aliquots of the 5% AVICEL® slurry were pipetted into wells of a 2.0 ml 96-deepwell plate (Axygen, Union City, Calif.) using a 1000 μl micropipette with a wide aperture tip (end of tip cut off about 2 mm from the base). One hundred μl of deionized water and 300 μl of 3.33 mM MnSO4-500 mM sodium acetate pH 5 were then added to each well. Enzyme mixtures were prepared and then added simultaneously to all wells in a volume of 100 μl, for a total of 1 ml in each reaction. […] All experiments reported were performed in triplicate.
Primary analysis of the hydrolysis reactions was performed using an AGILENT® 1100 HPLC with CHEMSTATION® software equipped with an AMINEX™ HPX-87H column. After approximately 4 days, the deep-well plate was removed from the incubator and chilled overnight to 4° C. The plate was then mixed well by inversion and briefly centrifuged at 52×g in a SORVALL® RT7 centrifuge for 10 seconds. Samples were then mixed by pipetting, and 200 μl from each well were transferred to a MULTISCREEN® HV centrifuge filter plate assembly. The centrifuge filter plate assembly was centrifuged at 2000 rpm in a SORVALL® RT7 centrifuge for 20 minutes. […] Sugars were detected using a refractive index detector with quantification by integration compared to purified sugar standards.
All HPLC data processing was performed using MICROSOFT EXCEL™ software. […] In this assay only glucose was measured since beta-glucosidase was at high levels in all samples but the controls. The degree of cellulose conversion was calculated using Equation 1. Triplicate data points were averaged and standard deviation was calculated.
The microcrystalline cellulose hydrolysis assay was performed as described in Example 10.
Data were collected and analyzed, as described in Example 10, after 72 hours of incubation at 50° C.

In test [2] the test system is T. aurantiacus CEL5A endoglucanase II and P. brasilianum CEL3A beta-glucosidase. The experiment in a line: Microcrystalline cellulose conversion assay I (Examples 8, 9) without GH61 polypeptide. The following applies: dioxy compound 0.3% w/w + endoglucanase II + beta-glucosidase (5 mg/g each), no GH61; 96 hours, at either 50° C. or 60° C. Type of test: biochemical, Thermoascus aurantiacus; Penicillium brasilianum. The protocol: A 5% microcrystalline cellulose slurry was prepared by addition of 2.5 g of AVICEL®PH101 (Sigma-Aldrich, St. Louis, Mo., USA) to a graduated 50 ml screw-cap conical tube followed by 15 ml of 1 M sodium acetate pH 5 and 1 ml of 100 mM MnSO4 and approximately 20 ml of deionizer water. Each conical tube was then mixed thoroughly by shaking/vortexing, and adjusted to 50 ml total with deionized water and mixed again. Contents of the tube were then quickly transferred to a 100 ml beaker and stirred rapidly with a magnetic stirrer. Five hundred μl aliquots of the 5% AVICEL® slurry were pipetted into wells of a 2.0 ml 96-deepwell plate (Axygen, Union City, Calif., USA) using a 1000 μl micropipette with a wide aperture tip (end of tip cut off about 2 mm from the base). Three hundred μl of either deionized water or a 1% dioxy compound solution (dissolved in deionized water) was added to each well.
The dioxy compounds assayed include caffeic acid (Sigma-Aldrich, St. Louis, Mo., USA), dichlorophenolindophenol (DCPIP; Sigma-Aldrich, St. Louis, Mo., USA), ethyl gallate (Sigma-Aldrich, St. Louis, Mo., USA), gallic acid (Sigma-Aldrich, St. Louis, Mo., USA), 3,4-dihydroxybenzoic acid (Sigma-Aldrich, St. Louis, Mo., USA), pyrocatechol (Sigma-Aldrich, St. Louis, Mo., USA), pyrogallol (Sigma-Aldrich, St. Louis, Mo., USA), sinapinic acid (3,5 dimethoxy-4-hydroxy cinnamic acid; Apin Chemicals LTD, Abingdon, UK), and tannic acid (Sigma-Aldrich, St. Louis, Mo., USA).
Enzyme mixtures were prepared and then added simultaneously to all wells in a volume of 200 μl, for a total of 1 ml in each reaction. […] All experiments reported were performed in triplicate.
After approximately 4 days, the deep-well plate was removed from the incubator and chilled overnight to 4° C. The plate was then mixed well by inversion and briefly centrifuged at 52×g in a SORVALL® RT7 centrifuge (Thermo Fisher Scientific, Waltham, Mass., USA) for 10 seconds. Samples were then mixed by pipetting, and 200 μl from each well were transferred to a MULTISCREEN® HV centrifuge filter plate assembly (Millipore, Bedford, Mass., USA). The centrifuge filter plate assembly was centrifuged at 2000 rpm in a SORVALL® RT7 centrifuge for 20 minutes. […] Sugars were detected using a refractive index detector (Agilent Technologies, Inc., Santa Clara, Calif., USA) with quantification by integration compared to purified sugar standards.
(§1) In this assay only glucose was measured since beta-glucosidase was at high levels in all samples but the controls.
(§2) A limit digest was performed to determine the total concentration accessible glucose equivalents using 100 mg of T. reesei cellulase (CELLIC™ CTec, Novozymes A/S, Bagsvaerd, Denmark) per gram cellulose, Triplicate data points were averaged and standard deviation was calculated.

The target of test [3] is T1, T. aurantiacus GH61A polypeptide. Description: Microcrystalline cellulose conversion assay I (Examples 8, 9) with T. aurantiacus GH61A polypeptide. Conditions: T. aurantiacus GH61A polypeptide (10 mg per g cellulose) + endoglucanase II + beta-glucosidase (5 mg/g each), no dioxy compound, 96 hours. The class given is biochemical. The protocol: A 5% microcrystalline cellulose slurry was prepared by addition of 2.5 g of AVICEL®PH101 (Sigma-Aldrich, St. Louis, Mo., USA) to a graduated 50 ml screw-cap conical tube followed by 15 ml of 1 M sodium acetate pH 5 and 1 ml of 100 mM MnSO4 and approximately 20 ml of deionizer water. Each conical tube was then mixed thoroughly by shaking/vortexing, and adjusted to 50 ml total with deionized water and mixed again. Contents of the tube were then quickly transferred to a 100 ml beaker and stirred rapidly with a magnetic stirrer. […]
After approximately 4 days, the deep-well plate was removed from the incubator and chilled overnight to 4° C. […] Sugars were detected using a refractive index detector (Agilent Technologies, Inc., Santa Clara, Calif., USA) with quantification by integration compared to purified sugar standards.
as §1, §2

Regarding `O=C(O)c1cc(O)c(O)c(O)c1` [gallic acid], the “conversion (hydrolysis) of the microcrystalline cellulose” value in test [1] (dioxy compound 0.1% w/w alone, no enzymes) is given as “no significant hydrolysis”. Further, the “change in conversion of microcrystalline cellulose compared to the enzymes in the absence of the dioxy compound” value in test [2] is “no significant change”.

B1: T. aurantiacus GH61A polypeptide: GH61A polypeptide having cellulolytic enhancing activity (SEQ ID NO: 14), recombinantly produced in Aspergillus oryzae JaL250 (protein, listed as Thermoascus aurantiacus)
chain: MSFSKIIATAGVLASASLVAGHGFVQNIVIDGKYYGGYLVNQYPYMSNPPEVIAWSTTATDLGFVDGTGYQTPDIICHRGAKPGALTAPVSPGGTVELQWTPWPDSHHGPVINYLAPCNGDCSTVDKTQLEFFKIAESGLINDDNPPGIWASDNLIAANNSWTVTIPTTIAPGNYVLRHEIIALHSAQNQDGAQNYPQCINLQVTGGGSDNPAGTLGTALYHDTDPGILINIYQKLSSYIIPGPPLYTG
Regarding B1, the “conversion of the microcrystalline cellulose” value in test [1] (T. aurantiacus GH61A polypeptide (10 mg/g) + cellobiohydrolase I + beta-glucosidase (5 mg/g each), no dioxy compound) is listed as 21.4±0.5%. Besides, the “conversion of microcrystalline cellulose” value in test [3] (50° C.) is 2.2±0.1%; in test [3] (60° C.) it was 2.6±0.1%.

For the origin of these results see patent US9394555B2, “Compositions comprising a polypeptide having cellulolytic enhancing activity and a dioxy compound and uses thereof” (priority 2010, dated 2016).
